Laboratory results from IntAct's records for PubMed 22677173.

B1: Spermatogenesis-defective protein 39 homolog (Homo sapiens), Q9H9C1 (parent)
chain: MNRTKGDEEEYWNSSKFKAFTFDDEDDELSQLKESKRAVNSLRDFVDDDDDDDLERVSWSGEPVGSISWSIRETAGNSGSTHEGREQLKSRNSFSSYAQLPKPTSTYSLSSFFRGRTRPGSFQSLSDALSDTPAKSYAPELGRPKGEYRDYSNDWSPSDTVRRLRKGKVCSLERFRSLQDKLQLLEEAVSMHDGNVITAVLIFLKRTLSKEILFRELEVRQVALRHLIHFLKEIGDQKLLLDLFRFLDRTEELALSHYREHLNIQDPDKRKEFLKTCVGLPFSAEDSAHIQDHYTLLERQIIIEANDRHLESAGQTEIFRKHPRKASILNMPLVTTLFYSCFYHYTEAEGTFSSPVNLKKTFKIPDKQYVLTALAARAKLRAWNDVDALFTTKNWLGYTKKRAPIGFHRVVEILHKNNAPVQILQEYVNLVEDVDTKLNLATKFKCHDVVIDTYRDLKDRQQLLAYRSKVDKGSAEEEKIDALLSSSQIRWKN
partner: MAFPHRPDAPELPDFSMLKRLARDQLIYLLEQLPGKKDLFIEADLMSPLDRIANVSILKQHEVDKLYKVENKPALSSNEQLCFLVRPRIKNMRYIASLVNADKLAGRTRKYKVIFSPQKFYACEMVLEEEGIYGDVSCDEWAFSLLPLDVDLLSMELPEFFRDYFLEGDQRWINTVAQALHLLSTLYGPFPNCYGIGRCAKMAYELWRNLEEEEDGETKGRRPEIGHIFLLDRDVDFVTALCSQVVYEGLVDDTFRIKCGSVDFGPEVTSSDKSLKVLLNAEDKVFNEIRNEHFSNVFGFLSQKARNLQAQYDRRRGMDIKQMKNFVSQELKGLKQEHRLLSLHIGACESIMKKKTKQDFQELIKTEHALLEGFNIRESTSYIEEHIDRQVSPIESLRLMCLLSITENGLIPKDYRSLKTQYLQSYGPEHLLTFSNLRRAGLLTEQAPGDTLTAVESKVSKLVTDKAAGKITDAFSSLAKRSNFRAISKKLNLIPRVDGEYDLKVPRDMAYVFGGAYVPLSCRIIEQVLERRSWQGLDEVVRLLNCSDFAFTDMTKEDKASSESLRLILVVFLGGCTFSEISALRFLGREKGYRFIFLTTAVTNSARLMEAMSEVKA

Variants of: B1
Conditions: with vp33b_human VPS33B

effect of a mutation on the interaction	Variant
increasing interaction	Y11F
